# Measurements reported in patent publication US12460006B2, “Antibodies against integrin alpha 11 beta 1” (Momenta Pharmaceuticals, Inc., priority 2019, dated 2025).
# B1: 40G10H11: rat anti-α11β1 mAb; VH SEQ ID NO: 157, VL SEQ ID NO: 158 (antibody, V domains shown)
# VH: MDIRLSLGFLVLFIKGDQCAVQLVESGGGLVQPGRSLKLSCAASRITFTDYYMAWVRQAPTKGLEWVATISSDGGDTFYRDSVKGRFTISRDNAKSTLYLQMVSLRSEDTATYYCSTDRGAQFGYWGQGTLVTVSS
# VL: MAPVQLLGLLLIWLPAMRCDIQMTQSPSFLSASVGDRVSINCKASQNVHENLNWYQQKLGEAPKRLIYNTNNLQTGIPSRFSGSGSGADYTLTISSLQPEDFATYFCLQHNAFPYTFGPGTKLELK
# B2: 16E10: rabbit anti-α11β1 mAb; heavy chain SEQ ID NO: 161, light chain SEQ ID NO: 162 (antibody)
# heavy: METGLRWLLLVAVLKGVQCQSLEESGGDLVKPGASLTLTCRVSGFSFSSSYYMCWVRQAPGKGLEWIACIGTTRGSTYYATWAKGRFTISKISSTTVTLQMTSLTDADTATYFCARDATGYRINTIGLYFNLWGPGTLVTVSSGQPKAPSVFPLAPCCGDTPSSTVTLGCLVKGYLPEPVTVTWNSGTLTNGVRTFPSVRQSSGLYSLSSVVSVTSSSQPVTCNVAHPATNTKVDKTVAPSTCSKPMCPPPELPGGPSVFIFPPKPKDTLMISRTPEVTCVVVDVSQDDPEVQFTWYINNEQVRTARPPLREQQFNSTIRVVSTLPIAHQDWLRGKEFKCKVHNKALPAPIEKTISKARGQPLEPKVYTMGPPREELSSRSVSLTCMINGFYPSDISVEWEKNGKAEDNYKTTPTVLDSDGSYFLYSKLSVPTSEWQRGDVFTCSVMHEALHNHYTQKSISRSPGK
# light: MDTRAPTQLLGLLLLWLPGARCAFELTQTPSSVEAAVGGTPTIKCQASQTIYSYLSWYQQKPGQPPKLLIYEASKLASGVPSRFSGSGSGTDYTLTISDLECADAATYYCQSYHGTASTEYNTFGGGTEVVVRGDPVAPTVLIFPPAADQVATGTVTIVCVANKYFPDVTVTWEVDGTTQTTGIENSKTPQNSADCTYNLSSTLTLTSTQYNSHKEYTCKVTQGTTSVVQSFNRGDC
# B3: 10-F23: mouse anti-α11β1 mAb; VH SEQ ID NO: 125, VL SEQ ID NO: 126 (antibody, V domains shown)
# VH: QVTLKESGPGILQPSQTLSLTCSFSGFSLSTFAMGVGWIRQPSGKGLEWLAHIWWDDDKYYNPALKSRLTISKDTSKNHVFLKIANVDTADTATYYCARMPLTFYFDYWGQGTTLTVSS
# VL: DVLLTQTPLSLPVSLGDQASISCRSSQSIVHSNGHTYLEWYLQKPGQSPKLLIYKVSNRFSGVPDRFSGSGSGTDFTLKISRVEAEDLGVYYCFQGSHVPFTFGGGTKLEIK
# B4: 24E4G6: rat anti-α11β1 mAb; VH SEQ ID NO: 147, VL SEQ ID NO: 148 (antibody, V domains shown)
# VH: MELELSLIFIFSLLKDVQCEVQLVESGGSLVQPGGSLKLSCVASGYTFSNYWMDWVRQSPGKSLEWIGEINTDGRRTNYAPSIKDRFTISRDNAKSTLYLQMSNVKSDDTAIYYCTILRVYPHYFDYWGQGVMVTVSS
# VL: MMSPAQFLFLLMLWIQEARGDVVMTQTPPSLSVAIGQSVSISCKSSQSLVYSDGETYLHWFLQSPGRSPKRLIYHVSNLGSGVPDRFSGTGSLTDFTLRISRVEAEDLGVYYCAQTTHFPPTFGAGTKLELK
# B5: 16G7: rabbit anti-α11β1 mAb; heavy chain SEQ ID NO: 159, light chain SEQ ID NO: 160 (antibody)
# heavy: METGLRWLLLVAVFKGVQCQEQLVESGGDLVKPGASLTLTCTASGFSFNKNYWMCWVRQAPGKGLEWIGCIYNGDGNTYYASWVNGRFTISKTSSTTVTLQMTSLTVADTAIYFCARLLNMWGPGTLVTVSSGQPKAPSVFPLAPCCGDTPSSTVTLGCLVKGYLPEPVTVTWNSGTLTNGVRTFPSVRQSSGLYSLSSVVSVTSSSQPVTCNVAHPATNTKVDKTVAPSTCSKPMCPPPELPGGPSVFIFPPKPKDTLMISRTPEVTCVVVDVSQDDPEVQFTWYINNEQVRTARPPLREQQFNSTIRVVSTLPIAHQDWLRGKEFKCKVHNKALPAPIEKTISKARGQPLEPKVYTMGPPREELSSRSVSLTCMINGFYPSDISVEWEKNGKAEDNYKTTPTVLDSDGSYFLYSKLSVPTSEWQRGDVFTCSVMHEALHNHYTQKSISRSPGK
# light: MDTRAPTQLLGLLLLWLPGARCADIVMTQTPASVEAAVGGTVTIKCQASESIGNALAWYQQKPGQPPKLLIYTAATLASGVPSRFSGSGSGTEFTLTISGVQCDDAATYYCQSYYFTSVSSYGNAFGGGTEVVVKGDPVAPTVLIFPPAADQVATGTVTIVCVANKYFPDVTVTWEVDGTTQTTGIENSKTPQNSADCTYNLSSTLTLTSTQYNSHKEYTCKVTQGTTSVVQSFNRGDC
# B6: 3-G5: mouse anti-α11β1 mAb; VH SEQ ID NO: 135, VL SEQ ID NO: 136 (antibody, V domains shown)
# VH: QVQLQQSGAELARPGASVKLSCKASGYTFTSYGISWVKQRTGQGLEWIGEIFPRSSNTYYNEKFKGKATLTADKSSSTVYMEFRSLTSEDSAVYFCAREGGLAWFAYWGQGTLVTVSA
# VL: DVVMTQTPLTLSVTIGQPASISCKSSQSLLYTNGNTYLNWLLQRPGQSPKRLIYLVSKLDSGIPDRFSGSGSGTDFTLRISRVEAEDLGVYYCLQSTHFPFTFGSGTKLEIK
# Key:
# mouse α11β1 = mouse α11β1 (Mus musculus, UniProt P61622); assay: ELISA binding to recombinant mouse α11β1; conditions: for Murine α11β1 ELISA: binding Yes/No
# mouse α11β1, sequence (P61622 23-1141 limits assumed): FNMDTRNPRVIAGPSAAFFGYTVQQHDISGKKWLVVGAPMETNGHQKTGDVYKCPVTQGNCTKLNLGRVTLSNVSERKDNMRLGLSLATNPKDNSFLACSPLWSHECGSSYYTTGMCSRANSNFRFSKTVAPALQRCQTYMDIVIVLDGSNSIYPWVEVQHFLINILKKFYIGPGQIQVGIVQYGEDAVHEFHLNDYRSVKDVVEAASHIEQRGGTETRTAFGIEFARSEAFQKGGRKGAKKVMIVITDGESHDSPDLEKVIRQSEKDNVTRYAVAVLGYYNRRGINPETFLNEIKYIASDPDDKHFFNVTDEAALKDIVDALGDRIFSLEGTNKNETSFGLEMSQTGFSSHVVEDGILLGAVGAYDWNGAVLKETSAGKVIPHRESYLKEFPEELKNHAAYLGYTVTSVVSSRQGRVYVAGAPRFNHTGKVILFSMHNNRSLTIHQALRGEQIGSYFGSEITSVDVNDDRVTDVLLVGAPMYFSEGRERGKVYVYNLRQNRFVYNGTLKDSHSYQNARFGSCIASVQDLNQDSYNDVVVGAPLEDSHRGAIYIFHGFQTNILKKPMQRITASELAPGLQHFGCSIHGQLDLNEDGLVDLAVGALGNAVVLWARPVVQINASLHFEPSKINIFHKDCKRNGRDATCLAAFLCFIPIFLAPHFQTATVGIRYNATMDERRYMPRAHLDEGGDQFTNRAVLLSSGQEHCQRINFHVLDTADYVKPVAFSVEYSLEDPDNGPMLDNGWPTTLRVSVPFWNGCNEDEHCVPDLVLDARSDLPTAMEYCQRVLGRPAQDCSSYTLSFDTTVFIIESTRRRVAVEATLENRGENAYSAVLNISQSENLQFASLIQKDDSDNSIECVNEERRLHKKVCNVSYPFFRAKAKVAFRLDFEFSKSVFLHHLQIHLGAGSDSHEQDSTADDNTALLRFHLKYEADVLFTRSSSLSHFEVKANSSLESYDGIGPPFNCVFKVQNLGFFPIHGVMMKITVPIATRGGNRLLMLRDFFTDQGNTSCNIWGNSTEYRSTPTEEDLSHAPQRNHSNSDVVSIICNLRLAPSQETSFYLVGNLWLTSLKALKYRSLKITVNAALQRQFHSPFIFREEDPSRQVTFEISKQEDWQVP
# mouse α11β1, sequence (P09055 21-728 partner limits assumed): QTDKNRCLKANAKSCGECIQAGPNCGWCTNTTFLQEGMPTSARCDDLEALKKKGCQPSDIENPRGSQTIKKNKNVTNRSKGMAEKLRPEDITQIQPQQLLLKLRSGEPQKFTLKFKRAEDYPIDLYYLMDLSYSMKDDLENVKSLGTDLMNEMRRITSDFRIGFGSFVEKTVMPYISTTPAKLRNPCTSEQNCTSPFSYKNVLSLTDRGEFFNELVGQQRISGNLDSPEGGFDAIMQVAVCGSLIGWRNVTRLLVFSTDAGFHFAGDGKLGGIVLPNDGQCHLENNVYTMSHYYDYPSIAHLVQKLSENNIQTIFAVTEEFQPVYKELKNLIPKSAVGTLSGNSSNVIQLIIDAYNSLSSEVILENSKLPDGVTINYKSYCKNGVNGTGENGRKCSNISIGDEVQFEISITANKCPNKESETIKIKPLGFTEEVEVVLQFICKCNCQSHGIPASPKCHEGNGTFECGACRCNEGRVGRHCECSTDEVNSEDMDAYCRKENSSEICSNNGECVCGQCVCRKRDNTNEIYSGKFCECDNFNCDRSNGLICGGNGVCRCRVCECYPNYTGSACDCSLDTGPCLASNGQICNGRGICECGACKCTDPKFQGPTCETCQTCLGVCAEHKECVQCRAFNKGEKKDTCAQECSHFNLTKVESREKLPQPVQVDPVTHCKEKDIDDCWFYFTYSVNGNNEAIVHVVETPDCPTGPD
# Procedure: 0.25 μg/mL of target antigen (recombinant human or mouse α11β1) was plated in a 96-well plate over night at 4° C. Plates were washed (PBS with 0.1% Tween-20), blocked (PBS with 2% BSA and 0.05% Tween-20) for 1 hour at room temperature and incubated with a range of antibody concentrations for 1 hour at room temperature. Subsequently, plates were washed and incubated with biotinylated anti-rabbit/mouse/human IgG in a 1:1000 dilution buffer and incubated for 1 hour at room temperature. After washing the plates, Streptavidin HRP was added at 1:200 in dilution buffer and incubated for 1 hour at room temperature. Ultra TMB ELISA substrate solution was added and the plates incubated for 5 minutes on a plate shaker. The reaction was stopped by adding stop solution to each well and plates were read at 450 nm.
# [1] = molecular target: T1, α11β1 expressed on the surface of CHO-K1 cells (Homo sapiens, UniProt Q9UKX5); assay: FACS antibody binding to CHO-K1 cells expressing human α11; conditions: binding Yes/No
# T1 construct: expressed in transfected cells; host or cells: CHO-K1
# T1 sequence (Q9UKX5 23-1188): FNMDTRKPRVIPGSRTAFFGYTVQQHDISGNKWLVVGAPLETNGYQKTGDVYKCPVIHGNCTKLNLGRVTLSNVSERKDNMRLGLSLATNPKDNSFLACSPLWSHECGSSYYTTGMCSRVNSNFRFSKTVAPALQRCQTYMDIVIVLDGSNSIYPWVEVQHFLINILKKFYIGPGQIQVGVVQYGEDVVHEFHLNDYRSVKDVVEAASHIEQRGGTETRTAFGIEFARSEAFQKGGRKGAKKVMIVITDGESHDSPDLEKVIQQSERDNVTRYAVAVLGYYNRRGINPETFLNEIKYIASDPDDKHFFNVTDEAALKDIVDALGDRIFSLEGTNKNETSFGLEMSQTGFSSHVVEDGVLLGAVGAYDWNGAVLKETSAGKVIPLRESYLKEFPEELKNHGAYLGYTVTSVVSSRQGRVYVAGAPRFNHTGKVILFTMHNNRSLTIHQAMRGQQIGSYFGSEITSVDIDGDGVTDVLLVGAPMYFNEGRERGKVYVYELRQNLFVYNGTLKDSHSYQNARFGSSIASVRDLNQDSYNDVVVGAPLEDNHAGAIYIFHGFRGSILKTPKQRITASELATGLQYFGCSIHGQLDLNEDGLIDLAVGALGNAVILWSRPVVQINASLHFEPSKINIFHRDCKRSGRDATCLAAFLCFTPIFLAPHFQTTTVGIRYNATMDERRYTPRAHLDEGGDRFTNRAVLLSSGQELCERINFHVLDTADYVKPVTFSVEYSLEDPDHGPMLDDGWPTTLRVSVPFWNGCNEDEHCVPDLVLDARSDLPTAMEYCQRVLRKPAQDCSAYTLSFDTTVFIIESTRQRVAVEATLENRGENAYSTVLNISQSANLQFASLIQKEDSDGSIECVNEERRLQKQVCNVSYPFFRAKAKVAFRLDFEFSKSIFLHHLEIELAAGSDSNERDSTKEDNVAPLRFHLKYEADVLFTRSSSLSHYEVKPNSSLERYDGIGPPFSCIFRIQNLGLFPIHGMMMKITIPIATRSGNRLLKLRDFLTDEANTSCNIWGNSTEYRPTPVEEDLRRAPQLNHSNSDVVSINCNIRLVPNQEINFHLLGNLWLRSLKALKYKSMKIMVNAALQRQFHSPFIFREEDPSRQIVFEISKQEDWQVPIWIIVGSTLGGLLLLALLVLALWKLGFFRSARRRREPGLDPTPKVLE
# Procedure: 200,000 cells (wild-type CHO-K1 cells or CHO-K1 cells expressing human α11) were incubated with each antibody at desired concentrations in FACS buffer for 30 min at 4° C. Then, the cells were washed with FACS buffer and incubated with secondary antibody at 1:100 dilution for 30 minutes at 4° C. Cells were then washed and fixed with 1% PFA in PBS for 20 minutes at room temperature; washed again and read on a cytometer in FACS buffer.
# Since integrins are large, transmembrane receptors that exist in different conformational shapes, experiments were performed to confirm that the novel antibodies also bound cell-expressed α11β1. A CHO-K1 cell line that endogenously expressed high levels of the β1 subunit was engineered to stably express human α11 (CHO-K1 hu α11).
# Binding EC50 was estimated using data from Fluorescence-activated cell sorting (FACS) performed with CHO-K1 hu α11β1 cells.
# [2] = tested on: Human Pulmonary Fibroblasts; assay: Fibroblast-to-Myofibroblasts Transition (FMT), αSMA expression; type: cell-based; conditions: for inhibition of αSMA expression / FMT: TGFβ-induced FMT; for Inhibition of FMT: Yes/No
# Procedure: Human Pulmonary Fibroblasts (ScienCell) were cultured in complete Fibroblast Growth Medium (ScienCell) until 80% confluent. Cells were washed and harvested using Accutase. Cells were seeded onto tissue culture-treated 96 well plates at 20,000 cells/well in complete Fibroblast Growth Medium. After 24 hours, cells were washed and starved in serum reduced medium for an additional 24 hours. After starvation, cells were treated with TGFβ-1 (R&D Systems) with or without anti-α11 antibodies. A polyclonal rabbit anti-human α11 antibody was used as a positive control. Appropriate IgG isotype controls were also included. After 48 hours, cells were harvested, fixed, permeabilized and stained with AlexaFluor488 Labeled Anti-αSMA (α-smooth muscle actin) (Invitrogen). Cells were acquired on a FACS Verse (Benton Dickson) to determine expression levels of αSMA. Data were analyzed by gating on single cells and determining the geometric Mean Fluorescence Intensity (gMFI) in the FITC channel for each sample. gMFI for each sample was normalized to the untreated control and presented as % inhibition.
# In addition to the binding abilities described above, it is important for an anti-α11β1 antibody to inhibit the fibroblast-to-myofibroblast transition (FMT). It is now appreciated that myofibroblasts are a heterogeneous cell population, existing in different activation states, with the main function of producing and contracting collagen extracellular matrix (ECM). FMT is a multi-step event that is controlled by a changing mechanical environment in tissues undergoing repair. TGFβ is one of the potent factors that potentiates this process and alpha smooth muscle actin (αSMA) is one of the main markers that becomes overexpressed when fibroblasts are undergoing the transition to becoming myofibroblasts. The presence of αSMA enhances fibroblast contraction and guides myofibroblast activation through an intracellular feedback loop. Because αSMA is the main molecular marker of myofibroblasts, the ability of the novel anti-α11β1 mAbs to inhibit αSMA expression in TGFβ-induced FMT was tested.
Molecule,Murine α11β1 ELISA (mouse α11β1),CHO-K1 FACS [1],inhibition of αSMA expression / FMT [2],Inhibition of FMT [2],binding to mouse α11β1 (mouse α11β1)
B1,Yes,Yes,significantly inhibited αSMA expression,Yes,–
B2,No,Yes,inhibit both ligand binding and FMT,Yes,does not bind mouse α11β1
B3,Yes/Low,Yes,–,No,–
B4,No/Low,Yes,significantly inhibited αSMA expression,Yes,–
B5,Yes,Yes,inhibit FMT,Yes,–
B6,Yes/Low,No,–,No,–
